In patent publication US20110151450:
Substitutions are numbered along the chain they refer to.

Columns and labels:
Assay in all cases: cleavage_in_vitro
[1] = test system: BanII-HF R126A (Bacillus aneurinolyticus); settings: NEB4, relative activity 50%
[2] = test system: T1, BclI-WT (Bacillus caldolyticus); settings: NEB4, relative activity 100%
T1 sequence: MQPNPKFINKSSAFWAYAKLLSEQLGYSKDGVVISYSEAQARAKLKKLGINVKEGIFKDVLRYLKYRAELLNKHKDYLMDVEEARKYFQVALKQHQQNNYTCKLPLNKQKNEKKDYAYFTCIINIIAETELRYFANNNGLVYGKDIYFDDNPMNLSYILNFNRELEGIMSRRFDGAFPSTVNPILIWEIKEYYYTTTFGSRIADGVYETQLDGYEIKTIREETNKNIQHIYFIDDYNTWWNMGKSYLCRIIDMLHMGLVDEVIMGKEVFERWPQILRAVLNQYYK

[3] = test system: T2, NruI-HF P22A/R90A (Nocardia rubra); settings: NEB4, relative activity 100%
T2 sequence: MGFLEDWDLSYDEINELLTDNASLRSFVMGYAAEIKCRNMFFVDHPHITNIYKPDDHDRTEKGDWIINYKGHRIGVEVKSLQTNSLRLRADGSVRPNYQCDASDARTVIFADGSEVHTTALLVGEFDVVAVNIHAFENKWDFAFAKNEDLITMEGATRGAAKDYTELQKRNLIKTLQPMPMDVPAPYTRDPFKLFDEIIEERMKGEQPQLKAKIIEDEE

[4] = molecular target: T3, BanII-WT (Bacillus aneurinolyticus) (UniProt P19887); settings: NEB4, relative activity 100%
T3 sequence: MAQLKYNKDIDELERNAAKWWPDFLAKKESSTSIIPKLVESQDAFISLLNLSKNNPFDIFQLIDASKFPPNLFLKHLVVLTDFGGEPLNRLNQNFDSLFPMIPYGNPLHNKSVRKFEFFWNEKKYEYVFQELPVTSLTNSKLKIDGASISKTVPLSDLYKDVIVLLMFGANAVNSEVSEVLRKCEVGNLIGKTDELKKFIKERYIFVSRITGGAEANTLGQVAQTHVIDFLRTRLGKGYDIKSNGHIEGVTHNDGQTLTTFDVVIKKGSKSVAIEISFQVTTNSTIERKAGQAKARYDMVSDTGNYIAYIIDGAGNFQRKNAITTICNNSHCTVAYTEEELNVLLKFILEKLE

[5] = test system: T4, BclI-HF Y192F (Bacillus caldolyticus); settings: NEB4, relative activity 100%
T4 sequence: T1 sequence with Y192F

NruI-WT (Nocardia rubra) = test system: T5, NruI-WT (Nocardia rubra); settings: NEB4, relative activity 12.5%
T5 sequence: T2 sequence with A22P, A90R

[6] = molecular target: T6, DpnII-WT (Diplococcus pneumoniae) (UniProt P09357); settings: NEB4, relative activity 25%
T6 sequence: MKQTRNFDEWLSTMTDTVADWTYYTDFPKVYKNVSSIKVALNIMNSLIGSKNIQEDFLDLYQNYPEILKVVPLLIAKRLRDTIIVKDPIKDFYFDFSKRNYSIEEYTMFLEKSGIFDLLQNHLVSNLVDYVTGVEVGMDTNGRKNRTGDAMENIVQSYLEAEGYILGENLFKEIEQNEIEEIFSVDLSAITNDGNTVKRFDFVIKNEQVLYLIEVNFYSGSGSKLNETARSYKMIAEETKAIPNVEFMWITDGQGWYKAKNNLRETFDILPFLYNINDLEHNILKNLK

[7] = molecular target: T7, DpnII-HF R199A (Diplococcus pneumoniae) (UniProt P09357); settings: NEB4, relative activity 100%
T7 sequence: T6 sequence with R199A

[8] = test system: T8, MluI-WT (Micrococcus luteus); settings: NEB4, relative activity 25%
T8 sequence: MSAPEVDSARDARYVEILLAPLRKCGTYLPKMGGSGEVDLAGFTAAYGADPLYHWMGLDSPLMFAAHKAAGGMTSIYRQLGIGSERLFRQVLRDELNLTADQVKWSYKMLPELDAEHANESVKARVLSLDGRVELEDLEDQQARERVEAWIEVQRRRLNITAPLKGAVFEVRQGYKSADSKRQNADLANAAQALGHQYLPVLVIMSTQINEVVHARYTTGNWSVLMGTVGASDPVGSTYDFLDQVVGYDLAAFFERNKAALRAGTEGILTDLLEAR

[9] = test system: T9, MluI-HF E112A/R132A (Micrococcus luteus); settings: NEB4, relative activity 100%
T9 sequence: T8 sequence with E112A, R132A

[10] = molecular target: T10, BglI-HF K225A (Bacillus globigii) (UniProt O68557); settings: NEB4, relative activity 100%
T10 sequence: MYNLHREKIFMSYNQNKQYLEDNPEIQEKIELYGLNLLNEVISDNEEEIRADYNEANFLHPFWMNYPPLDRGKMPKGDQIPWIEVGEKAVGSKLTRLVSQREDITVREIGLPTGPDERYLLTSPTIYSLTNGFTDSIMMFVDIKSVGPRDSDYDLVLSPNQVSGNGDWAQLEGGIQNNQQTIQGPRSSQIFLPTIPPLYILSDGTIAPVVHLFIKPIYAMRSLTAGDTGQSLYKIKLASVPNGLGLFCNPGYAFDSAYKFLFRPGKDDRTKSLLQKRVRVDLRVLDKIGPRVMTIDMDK

[11] = molecular target: T11, BanI-HF Q292A (Bacillus aneurinolyticus) (UniProt P19887); settings: NEB4, relative activity 100%
T11 sequence: T3 sequence with Q292A

[12] = test system: T12, BstEII-HF R105A (Bacillus stearothermophilus); settings: NEB4, relative activity 100%
T12 sequence: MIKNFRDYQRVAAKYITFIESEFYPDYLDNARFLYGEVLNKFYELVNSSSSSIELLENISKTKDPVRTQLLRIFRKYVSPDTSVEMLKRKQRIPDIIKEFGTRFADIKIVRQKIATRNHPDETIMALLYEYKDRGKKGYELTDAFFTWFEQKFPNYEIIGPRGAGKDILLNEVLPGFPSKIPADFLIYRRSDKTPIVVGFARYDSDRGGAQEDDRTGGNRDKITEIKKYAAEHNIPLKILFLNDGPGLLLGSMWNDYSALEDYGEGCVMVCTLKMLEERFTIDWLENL

[13] = test system: T13, BstEII-WT (Bacillus stearothermophilus); settings: NEB4, relative activity 100%
T13 sequence: T12 sequence with A105R

[14] = molecular target: T14, BanI-WT (Bacillus aneurinolyticus) (UniProt P19887); settings: NEB4, relative activity 100%
T14 sequence: T3 sequence

[15] = molecular target: T15, BglI-WT (Bacillus globigii) (UniProt O68557); settings: NEB4, relative activity 50%
T15 sequence: T10 sequence with A225K

[16] = test system: T16, NspI-HF S97A (Nostoc species); settings: NEB4, BSA, relative activity 100%
T16 sequence: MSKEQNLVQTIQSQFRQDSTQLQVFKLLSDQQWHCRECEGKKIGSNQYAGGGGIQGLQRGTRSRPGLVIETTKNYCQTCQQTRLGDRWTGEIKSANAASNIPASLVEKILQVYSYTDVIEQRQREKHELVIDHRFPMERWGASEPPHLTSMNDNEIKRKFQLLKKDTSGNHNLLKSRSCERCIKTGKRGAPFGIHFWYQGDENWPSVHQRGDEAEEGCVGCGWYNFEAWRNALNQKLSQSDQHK

NspI-WT (Nostoc species) = test system: T17, NspI-WT (Nostoc species); settings: NEB4, BSA, relative activity 50%
T17 sequence: T16 sequence with A97S

dam- lambda DNA
activity (fidelity index) [1]: > 2000 | activity (fidelity index) [2]: 32 | activity (fidelity index) [3]: > 16000 | activity (fidelity index) [4]: 16 | activity (fidelity index) [5]: > 2000 | activity (fidelity index) (NruI-WT (Nocardia rubra)): 32 | activity (fidelity index) [6]: 1 | activity (fidelity index) [7]: 8000

lambda DNA
activity (fidelity index) [8]: 32 | activity (fidelity index) [9]: > 32000 | activity (fidelity index) [10]: > 8000 | activity (fidelity index) [11]: > 2000 | activity (fidelity index) [12]: > 2000 | activity (fidelity index) [13]: 4 | activity (fidelity index) [14]: 16 | activity (fidelity index) [15]: 32

pUC19 plasmid
activity (fidelity index) [16]: 500 | activity (fidelity index) (NspI-WT (Nostoc species)): 32
